Numbering of substitutions follows the chain as printed. Blank lines part the entries; values can stand above or below the binder they belong to.
Experiments:
[1] = target: T1, human CD33 on primary human dendritic cells (human, UniProt P20138 18-364); test: flow cytometry on primary human dendritic cells, antibody at 2 ug/mL, fluorescent anti-human IgG secondary
T1 construct: Endogenous CD33 of monocyte-derived dendritic cells from healthy donors; also called Siglec-3
Description: The 7 humanized anti-CD33 antibodies of 6C7 were evaluated for binding to primary dendritic cells by flow cytometry, and binding was compared to that of an anti-CD33 6C7 chimeric antibody that contained the variable heavy chain sequence and the variable light chain sequence of anti-CD33 antibody 6C7. Monocytes were isolated from blood from healthy human donors using the RosetteSep™ monocyte isolation antibody cocktail (StemCell Technologies). The isolated monocytes were differentiated into dendritic cells with 100 ng/mL GM-CSF and 100 ng/mL IL-4 (Peprotech). Dendritic cells were incubated with dilutions of the anti-CD33 antibodies for 30 minutes on ice in the dark, followed by a 30-minute incubation with a fluorescently-conjugated anti-human IgG secondary antibody. Cells were washed twice in FACS buffer (PBS+2% FBS, 2 mM EDTA), and flow cytometry was performed on a BD FACS Canto. Data were analyzed using FlowJo software (Ashland, OR).
The antibody variants were evaluated for binding to primary human dendritic cells, according to the method described in Example 1, at an antibody concentration of 2 μg/mL.

[2] = target: T2, recombinant human CD33 protein (Sino Biologicals) (human, UniProt P20138 18-259); test: ELISA on recombinant CD33, relative binding, antibody concentration not given
T2 construct: Bought protein; also called recombinant CD33
T2 sequence (P20138 18-259 limits assumed): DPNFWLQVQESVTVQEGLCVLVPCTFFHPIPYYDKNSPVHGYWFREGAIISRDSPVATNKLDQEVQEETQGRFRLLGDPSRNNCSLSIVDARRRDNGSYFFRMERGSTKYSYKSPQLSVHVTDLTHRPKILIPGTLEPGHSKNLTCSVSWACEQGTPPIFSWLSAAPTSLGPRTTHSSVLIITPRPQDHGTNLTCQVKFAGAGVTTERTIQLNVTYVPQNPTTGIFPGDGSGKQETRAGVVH

[3] = target: T3, recombinant cynomolgus CD33 protein (NovoProtein) (cynomolgus); test: BLI (ForteBio)
T3 construct: Bought protein; also called cyno CD33
T3 sequence (chain, as listed by the source limits assumed): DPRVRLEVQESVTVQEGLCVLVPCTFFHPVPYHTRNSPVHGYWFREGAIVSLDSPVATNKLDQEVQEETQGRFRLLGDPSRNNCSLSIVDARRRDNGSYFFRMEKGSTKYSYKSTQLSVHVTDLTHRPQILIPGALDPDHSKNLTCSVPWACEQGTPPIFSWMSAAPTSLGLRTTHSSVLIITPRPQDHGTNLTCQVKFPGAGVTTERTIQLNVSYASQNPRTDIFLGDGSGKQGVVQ
Description: (§1) Affinity parameters of the antibody variants for human CD33 were measured by BioLayer Interferometry in a ForteBio assay according to standard techniques (Estep et al. (2013) MAbs 5(2): 270-8) and were compared to those of the parental antibody (antibody 6C7H8) and the parental humanized antibody (antibody 6C71H5). Briefly, the antibodies were captured on anti-human Fc Biosensors (Pall ForteBio). Recombinant human CD33 (10 nM, Sino Biologicals) was then bound to the captured anti-CD33 surface (200 s association time, 1200 s dissociation time). Local fitting was used to extract association and dissociation rate constants (kₐ and kd, respectively) for each antibody. Apparent affinity constants (KD) were calculated from the ratio kd/kₐ.
(§2) The affinity parameters of anti-CD33 antibody 6C7H54 for human CD33 and cynomolgus CD33 were measured by BioLayer Interferometry in a ForteBio assay, according to the method described above.

[4] = target: T1, human CD33 on primary human dendritic …; test: cell-based or functional assay
[5] = target: T3, recombinant cynomolgus CD33 protein …; test: BLI (ForteBio), antibody on anti-human Fc sensor
Description: as §1, §2

[6] = target: T2, recombinant human CD33 protein (Sino …); test: BLI (ForteBio), antibody on anti-human Fc sensor
Description: as §1, §2

[7] = target: T3, recombinant cynomolgus CD33 protein …; test: ELISA, plate coated with recombinant CD33
[8] = target: T2, recombinant human CD33 protein (Sino …); test: ELISA, plate coated with recombinant CD33
[9] = target: T1, human CD33 on primary human dendritic …; test: cell-based or functional assay; remark: listed apart in the source

T1 sequence (P20138 18-364): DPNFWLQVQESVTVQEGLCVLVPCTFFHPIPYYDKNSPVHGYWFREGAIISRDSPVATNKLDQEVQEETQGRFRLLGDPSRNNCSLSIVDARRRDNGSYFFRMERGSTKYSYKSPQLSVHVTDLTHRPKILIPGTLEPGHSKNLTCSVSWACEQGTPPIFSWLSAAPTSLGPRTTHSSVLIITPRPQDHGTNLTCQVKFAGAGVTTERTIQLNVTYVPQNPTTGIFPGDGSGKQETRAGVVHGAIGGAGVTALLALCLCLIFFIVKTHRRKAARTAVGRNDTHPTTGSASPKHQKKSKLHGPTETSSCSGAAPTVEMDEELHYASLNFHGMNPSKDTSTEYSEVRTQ

- binding result [1]: binds
- binding result [2]: binds
B1: anti-CD33 antibody 6C7H11 (antibody, V domains shown)
VH: EVQLVESGGGLVQPGGSLRLSCAASGFTFSEYAMNWVRQAPGKGLEWVGEIRLKSNNYVTNYAASVKGRFTISRDDSKNSVYLQMNSLKTEDTGVYYCTRAGYYVPFAYWGQGTLVTVSS
VL: QLVLTQSPSASASLGASVKLTCTLSSQHSTYTIEWYQQQPEKGPRYLMELKKGGSHSTGDGIPDRFSGSSSGAERYLTISSLQSEDEADYYCGVGDTIKEQFVYVFGGGTKLTVL
notes: VH/VL only

- fold difference of binding affinity, cynomolgus CD33 against human CD33 [3]: ≤ 3 fold
- Fold increase in potency compared to 6C7H5 [4]: 1.2 fold
- Receptor downregulation, (EC50) (pM) [4]: 30.2 pM
- Kd [5]: 0.178 nM
- koff [5]: 0.000105 s⁻¹
- kon [5]: 589000 M⁻¹ s⁻¹
- Kd [6]: 0.061 nM
- koff [6]: 3.32e-05 s⁻¹
- kon [6]: 545000 M⁻¹ s⁻¹
- EC50 [7]: 0.57 nM
- Relative maximal binding (cyno/human) [7]: 0.73
- Relative potency (human/cyno) [7]: 0.49
- EC50 [8]: 0.28 nM
- Maximal downregulation (% CD33 remaining) [9]: 26.1 % CD33 remaining
- Receptor downregulation, (pM, EC50) [9]: 30.2 pM
B2: anti-CD33 antibody 6C7H54 (antibody, IgG1, V domains shown)
VH: B1 VH with A24G, E31N, A33E, G49A
VL: B1 VL with V3M, E41G, G53E, D96H
notes: VH/VL only; also called 6C7H54 IgG1; 6C754

Reference: US20250270319A1 (Alector, published 2025)
